Data from the Human Domainome abundance scans (Beltran et al. 2025).

B1: FERM and PDZ domain-containing protein 4, residues 75 to 154; numbered along this chain, Q14CM0 (parent)
chain: APRKVEMRRDPVLGFGFVAGSEKPVVVRSVTPGGPSEGKLIPGDQIVMINDEPVSAAPRERVIDLVRSCKESILLTVIQP

Variants of: B1
Experiment: abundance fitness (aPCA) (normalised: wild type 0, dead -1); higher = more abundant; growth selection in yeast, the domain comes from the species named
Settings: Homo sapiens

Abundance fitness of substitutions, site by site:
I41: A 0.005; M 0.03; F 0.043; W -0.004; G -0.084; H 0.028; L 0.024; S 0.033; T 0.013; Y -0.011; K -0.008; D -0.063; E 0.015; Q -0.003; C -0.014; P -0.925; V -0.009; N 0.032
T31: V -0.058; W -0.196; R -0.034; S -0.001; Y -0.117
K39: L 0.005; S -0.119; W -0.145; P -0.679; T -0.201; G -0.264; M -0.045; H -0.028; Y -0.068; Q -0.032; F -0.036; V -0.06; I 0.005; A -0.079; C -0.036; D -0.546; R -0.03; E -0.135
P32: M -0.039; G -0.098; W -0.247; L -0.083; V -0.051; K -0.027; S -0.032; Y -0.136; E -0.037; R -0.05; D -0.075; N -0.058; F -0.206; I -0.08; H -0.046; T -0.036; Q -0.018; A -0.029
P42: E -0.024; A -0.036; D -0.064; K -0.108; S -0.093; T -0.058; R -0.124; V -0.048; Q -0.043; I -0.082; Y -0.276; L -0.104; H -0.155; W -0.477; M -0.154; N -0.069; G -0.237
L40: F -0.8; R -0.978; W -1.07; T -0.846; P -0.928; I -0.125; D -0.965; V -0.156; S -0.87; N -0.94; Y -1.02; A -0.871; G -1.01; M -0.19; H -1.07; E -0.989
G43: I -1.03; M -0.175; H -0.204; E -0.18; N -0.131; S -0.262; Q -0.227; Y -0.246; W -0.402; L -0.284; P -0.958; F -0.256; V -0.991; R -0.248; D -0.108; C -0.252; T -0.424
G33: K -0.064; E -0.112; P -0.871; V -0.328; F -0.116; I -0.332; R -0.104; D -0.024; A -0.055; H -0.101; W -0.228; L -0.104; N -0.089; S -0.088; M -0.124; T -0.157; Q -0.122
M48: N -0.095; I -0.154; G -0.025; L -0.072; V -0.127; T -0.015; K -0.046; F -0.01; S 0.008; A 0.044; E -0.028; H -0.121; R -0.046; Y -0.083; C -0.003; D -0.095; W -0.152; P -0.917
D44: W -0.817; Y -0.697; M -0.186; C -0.289; H -0.306; P -0.937; K -1.01; F -0.957; R -1.01; A -0.221; G -0.73; N -0.418; Q -0.369; S -0.264; E -0.173
V47: Q -0.045; Y -0.019; F -0.118; N -0.175; I 0.018; L 0.012; A -0.112; C -0.032; E -0.083; T -0.01; H -0.06; D -0.084; M -0.03; K -0.114; S -0.098; R -0.192; G -0.426; W -0.128
P35: Q -0.33; S -0.394; R -0.486; K -0.59; T -0.543; N -0.213; E -0.35; W -1.08; A -0.202; L -0.857; I -0.622; C -0.435; G -0.661; Y -0.708; M -0.355; V -0.331; D -0.737
I46: L -0.051; F -0.255; T -0.113; S 0.073; N -0.679; V -0.014; P -0.611; M -0.293
G38: Q -0.099; D -0.061; C -0.186; N -0.078; F -0.096; T -0.137; V -0.526; H -0.045; L -0.21; K -0.105; S -0.124; I -0.651; E -0.155; W -0.274; M -0.185; Y -0.142; P -0.54
I49: A -0.581; H -0.676; G -0.887; V 0.006; D -0.846; E -0.894; P -0.928; R -0.868; C -0.267; Q -0.941; M -0.529; Y -0.855; L -0.111; T -0.708; W -0.779; F -0.476; S -0.929; N -0.847
D51: A -0.087; Q -0.027; E -0.016; N -0.047; L -0.168; C -0.135; I -0.511; M -0.077; H 0.01; F -0.194; P -0.821; K -0.044
E37: Q -0.034; T -0.126; V -0.057; R -0.211; C -0.046; I -0.145; H -0.09; G -0.173; M -0.122; Y -0.044; L -0.235; D -0.028; P -0.985; F -0.103; N -0.106; K -0.176
G34: M -0.692; L -0.595; K -1.02; T -0.066; Q -0.802; N -1.07; F -0.765; A -0.157; R -0.954; W -1.1; Y -0.867; P -0.92; S -0.001; C -0.552; V -0.962; H -0.543; D -0.84; E -0.999; I -0.957
Q45: D -0.589; W -0.2; L -0.136; R -0.026; I -0.105; F -0.247; V -0.123; T -0.105; A -0.084; S -0.102; E -0.037; K -0.057; N -0.126; H -0.009; C -0.101; P -0.938
N50: A -0.143; P -0.919; Y -0.162; C -0.2; E -0.054; M -0.187; I -0.607; T -0.597; L -0.361; H -0.11; Q -0.094; W -0.173; V -0.695; F -0.145; G 0; K -0.223; D -0.035; S -0.185
S36: Q -0.81; F -0.742; H -0.741; A 0.032; D -0.826; R -1.07; K -1.1; T -0.477; E -0.866; V -0.668; L -0.867; N -0.606; Y -0.927; G -0.05; M -0.567; C -0.051
